Measurements reported in the supplement of paper PMC9170038.

System: MS2 coat protein
Assay: apparent KD of MS2 coat protein; designed switch direction (-1 OFF switch, 1 ON switch): -1; higher = weaker reporter binding
Method in brief: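 The buffer was Tris-HCl pH 7.5 with KCl, MgCl2, BSA, DTT, tRNA and Tween-20. In it, SNAP-549-labelled MS2 coat protein was titrated in doubling steps from 0.7 or 1.5 nM to 3 µM over chip-bound RNA switches transcribed by stalled E. coli RNA polymerase on Illumina chips. Apparent KD is the per-design median over clusters of curve fits to normalised fluorescence.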

[1] = Eterna round: R95, input ligand: FMN 200 uM
[2] = Eterna round: R95, input ligand: microRNA oligo, concentration not stated
[3] = Eterna round: R95, input ligand: none
[4] = input ligand: microRNA oligo, concentration not stated

| Sequence | apparent KD of MS2 coat protein (input ligand: FMN 200 uM) [µM] | apparent KD of MS2 coat protein (input ligand: none) [µM] | apparent KD of MS2 coat protein [1] [µM] | apparent KD of MS2 coat protein [2] [µM] | apparent KD of MS2 coat protein [3] [µM] | apparent KD of MS2 coat protein [4] [µM] |
| --- | --- | --- | --- | --- | --- | --- |
| AACAGUCUAGAGGAUAUGCUGGAUUAAUAUCUUGCAGAAGGCUGGACAUGAGGAUCACCCAUGUAAAUACUACC [Omei Ex6 A12] (Eterna round: R97, puzzle: Exclusion 6) | 0.094 | 0.0319 | – | – | – | – |
| AAUAAACGAGGAUAUACUAAAAUAUGAAUAAAAUAAAUAAAACAUGAGGAUCACCCAUGUAGAAGGCGUAAUAA [JMF's Not so obvious solution 4] (puzzle: Exclusion 2) | – | – | 0.0213 | 0.0234 | 0.0214 | – |
| AUUUAAUUUAAUAAGAUCACAUGAGGAUCACCCAUGUAUAUAUAGGAUAUCAGCUCGUGUAGAGCUGAGAAGGAUAUAUACAUG [ExNG3/8-A3] (Eterna round: R96, puzzle: Exclusion NG 3) | – | – | – | – | – | 0.0154 |
| GGAUCUUGGGUCAGGAUAUGCUGACAGCCAUGUCAGCAGAAGGGACAUGAGGAUCACCCAUGUGCUCGGUUUUG [Magic-19] (puzzle: Brourd's mod of Exclusion 4) | – | – | – | 0.0101 | – | – |
| UCCUGCUGGCGAGGAUAUCCUGUGCGGUUCCGGCUCGUGUCUGUUACAUGAGGAUCACCCAUGUGGGAGAAGGUGUCUGUGGCC [Design 98] (Eterna round: R96, puzzle: Exclusion NG 2) | 0.0186 | 0.0205 | – | – | – | 0.0141 |
| AAGGACAGAGGAUAUACAUAGAUACAGAUUCAUGUAGAACUACAUGAGGAUCACCCAUGUAGAAGGCUGUCCUA [Fiskers Ex 2 - 2] (Eterna round: R96, puzzle: Exclusion 2) | 0.412 | 0.0317 | – | – | – | 0.0253 |
| AGGUGUAGAGGAUAUCGAGUUCUUUACAUGAGGAUCACCCAUGUCCUGGGCACCCAGGACCGAGAAGGCUACACCA [Omei Ex5 D29] (Eterna round: R97, puzzle: Exclusion 5) | 0.0503 | 0.0328 | – | – | – | – |
| GAAAACGAAGAGGAUAUUUGAUAUCAUAGCUUCAAAGAAGGCUUCACAUGAGGAUCACCCAUGUGAUCUUCAAA [jl-ex6-4.06 ViennaUCT mod] (Eterna round: R97, puzzle: Exclusion 6) | 0.0958 | 0.0227 | – | – | – | – |
| CUCAGACAUGAGGAUCACCCAUGUGAGGAUAUGAUGCGAUCGUCGAAAGACGAUAGCAUCAGAAGGUACAAAUG [Fiskers Ex 1 - 20] (puzzle: Exclusion 1) | – | – | – | 0.0553 | – | – |
| UUGUUCGAGCGGAGUUCUCACAUGAGGAUCACCCAUGUGCUCGUCUUGUGUGGUUCUGUGGCGUGGUUCGCGGUGCC [Sensor, turn-off variant 1] (Eterna round: R97, puzzle: Sensor, turn-off variant 1) | 0.237 | 0.292 | – | – | – | – |
| CUAAGUUGGUAAGGAUAUCCUACAUUAUUCUGACCCGUGCAAGCUACAUGAGGAUCACCCAUGUGGGAGAAGGUGCGUUAAAGU [Design 4] (Eterna round: R96, puzzle: Exclusion NG 2) | 0.0237 | 0.024 | – | – | – | 0.0213 |
| UAAUAGUCAGGAUAUACAUGAGGAUCACCCAUGUAGAAAUGAACCUGGGUUCUCCUAGGUAGAAGGGACAAAAG [Geerqu] (puzzle: Exclusion 3) | – | – | 0.0287 | 0.0227 | 0.0241 | – |
| GUUAACGUAGGAUAUUAGUACAUGAACAUGAGGAUCACCCAUGUGAGGUGGGUCUUAGAUUAAGAAGGGCGAAGAA [EX5 #30] (Eterna round: R97, puzzle: Exclusion 5) | 0.525 | 0.867 | – | – | – | – |
| AGUCCUGGAGUUAGGAUAUGAAGUAUCACUGCACUUCAGAAGGGACUUGAGGAUCACCCAAGUAGCCGUGAGGG [salish99_bmod_ex4_r4_003] (Eterna round: R97, puzzle: Brourd's mod of Exclusion 4) | 0.108 | 0.0567 | – | – | – | – |
| AAUCCACAUGAGGAUCACCCAUGUGAGGAUAUGUCCAUAUUCGGCAAAUCGGAUAUGGACAGAAGGCACAUAAA [JR_Exclusion1_Sub013] (puzzle: Exclusion 1) | – | – | – | 0.0283 | – | – |
| CCGACGUGAGGAUAUCCAUCUGGAUCAGACUAGAUCCUGAUGGAGAAGGCACAUGAGGAUCACCCAUGUCACGG [Eli 4x 4.48] (Eterna round: R97, puzzle: Exclusion 4) | 0.413 | 0.14 | – | – | – | – |
| UCGGCGCGAGGAUAUACGUUUGCUCUUUUUCGUUUUUGUGUACAUGAGGAUCACCCAUGUAGAAGGCGCGCCGC [Apr-15 SS2-19] (Eterna round: R96, puzzle: Exclusion 2) | 0.0809 | 0.0315 | – | – | – | 0.0173 |
| GUUUUGAGACGGAGAUCCGACAUGAGGAUCACCCAUGUCUCGCAAGCUUUUUGCUCGUCUUAUACUCCUCUGUUCUC [Elimod 45 - Jieux - Sensor, turn-off variant 1] (Eterna round: R97, puzzle: Sensor, turn-off variant 1) | 0.0178 | 0.0171 | – | – | – | – |

| Sequence | apparent KD of MS2 coat protein (input ligand: FMN 200 uM) [µM] | apparent KD of MS2 coat protein (input ligand: none) [µM] | apparent KD of MS2 coat protein [1] [µM] | apparent KD of MS2 coat protein [2] [µM] | apparent KD of MS2 coat protein [3] [µM] | apparent KD of MS2 coat protein [4] [µM] |
| --- | --- | --- | --- | --- | --- | --- |
| AUAAAUGAGGAGGAUAUCGAAUCGGAAACGAUUCGAGAAGGCCUAACAUGAGGAUCACCCAUGUUCCUUAAAUA [Mat - Exclusion 6 - Eli Mod - D64] (puzzle: Exclusion 6) | – | – | – | 0.0253 | – | – |
| GGUGGGCUAGGAUAUGCUUUGGGAAGGCAUUCCUUCGAUAAACUUGAGGAUCACCCAAGUAGAAGGAGCUUGCC [salish99_ex2_r4_021] (Eterna round: R97, puzzle: Exclusion 2) | 0.0213 | 0.0136 | – | – | – | – |
| GUGAAACAUGAGGAUCACCCAUGUGAGGAUAUGUUUAAGUAAUGAUGAAAGUAUAUAUACAGAAGGCACAAUGG [Mat - Mod of JL D72] (puzzle: Exclusion 1) | – | – | 0.142 | 0.0715 | 0.0644 | – |
| ACGAUGUUUGGAGGAUAUACAUGAGGAUCACCCAUGUGCGACCGAGUCCGCACUUCACCUCAGUGGUAGAAGGCCGAACAUCGA [Eternabot solution 12] (Eterna round: R96, puzzle: Exclusion NG 2) | 0.0979 | 0.255 | – | – | – | 0.545 |
| ACAAGCAAGACAGGAUAUACGAAGCACGUUGUGGUCUGUGACAUGAGGAUCACCCAUGUGUGAGAGUAGAAGGGUUUUGAUCCC [Edarenraat] (Eterna round: R96, puzzle: Exclusion NG 2) | 1.14 | 0.828 | – | – | – | 0.685 |
| GAUUUAGAGCAGGAUAUCAUAGAAUUAUAUGAAUGAGAAGGGCUCACAUGAGGAUCACCCAUGUGGUCCUAGAU [JL Dibiri mod 22] (Eterna round: R96, puzzle: Exclusion 6) | 0.235 | 0.0254 | – | – | – | 0.0217 |
| ACCUCACAUGAGGAUCACCCAUGUCAGGAUAUGUACCUGGUCUAGUCAAAGACCAGAAGCAGAAGGGACUGCGG [Ria] (puzzle: Exclusion 1) | – | – | 0.0297 | 0.0878 | 0.106 | – |
| UUUUGAAAGUGAGGAUAUGACAUGAGGAUCACCCAUGUAAAGGGAGUUGAAUAUAUAGAAAGAUAUCAGAAGGCACAAAUGUUU [JR_ExcNG2_Sub001] (Eterna round: R96, puzzle: Exclusion NG 2) | – | – | – | – | – | 0.115 |
| GCAUCUCAUGUCAGGAUAUGCUGUACCUUGGUACAGCAGAAGGGACAUGAGGAUCACCCAUGUGCCUAAGAUGC [JL-BMX4-4.12] (Eterna round: R97, puzzle: Brourd's mod of Exclusion 4) | 1.27 | 0.254 | – | – | – | – |
| UGAUCAGACCGAGGAUAUACAUGUAGGACGCACGUGAGUGCGUCCAAUACAUGAGGAUCACCCAUGUAGAAGGCGGUCUGAUCU [JL ENG2 1.94] (Eterna round: R96, puzzle: Exclusion NG 2) | 0.181 | 0.0867 | – | – | – | 0.0764 |
| UGCAGACGAGGAUAUAAACGAUAUAACAUGAGGAUCACCCAUGUACGAUCGAUAGAUCGUUUAGAAGGCGUCUGCA [E5/9-A2] (Eterna round: R97, puzzle: Exclusion 5) | 0.0128 | 0.0145 | – | – | – | – |
| ACAAGCUUUUCGAUCCUCCACAUGAGGAUCACCCAUGUGCUCGACUUGUAAAGUACUAUCACGAAAGUGAUAGUACA [Sensor, turn off variant 1 v.1] (Eterna round: R97, puzzle: Sensor, turn-off variant 1) | 0.455 | 0.629 | – | – | – | – |
| ACAUCACAGCUAGGAUAUAUAUGACAUGAGGAUCACCCAUGUUGUCCCAUGUUGACGAAAACCGAAUAGAAGGAGCUACAGAUG [Ex NG2 #4] (Eterna round: R96, puzzle: Exclusion NG 2) | 0.0532 | 0.0642 | – | – | – | 0.0549 |
| AUGGAACAUGAGGAUCACCCAUGUGAGGAUAUGUGAGAAGGAUUUGAGAUGGAGAGGGACAGAAGGCACUAGGA [JR_Exclu1_Sub082] (puzzle: Exclusion 1) | – | – | – | 0.0376 | – | – |
| UCGCUGCGAGGAUAUACAUGAGGAUCACCCAUGUGCGGGUCCGGGUUUUCGUCCAUUAGUAGAAGGCGCAGUGA [JL Laongeedie mod 3] (puzzle: Exclusion 3) | – | – | – | 0.269 | – | – |
| AAAUAAUAGAUAAAAUAACACAUGAGGAUCACCCAUGUGCGAUGUUGAGGGUGAUACAGGCUUUUUGCUCGUCUUAU (Eterna round: R96, puzzle: Sensor v3, turn-off variant 1) | 0.155 | 0.133 | – | – | – | 0.415 |
| GAGUGACAUGAGGAUCACCCAUGUGAGGAUAUCGGACGGACCAAAUUAACAAUAUUUGCGAGAAGGCACAUCGG [Exclusion 1 V17] (puzzle: Exclusion 1) | – | – | – | 0.0822 | – | – |
